In patent US20200399381A1 (I MAB BIOPHARMA US, published 2020):
Substitutions are numbered along the chain they refer to. Blank lines part the entries; values can stand above or below the binder they belong to.

Assays:
[1] = target: T1, human IFNAR-1 protein (form not stated) (human, UniProt P17181 28-436, limits assumed); assay: affinity ranking of expressed humanized 485G10 IgGs (method not named)
T1 construct: bispecific ELISA
T1 sequence (looked up): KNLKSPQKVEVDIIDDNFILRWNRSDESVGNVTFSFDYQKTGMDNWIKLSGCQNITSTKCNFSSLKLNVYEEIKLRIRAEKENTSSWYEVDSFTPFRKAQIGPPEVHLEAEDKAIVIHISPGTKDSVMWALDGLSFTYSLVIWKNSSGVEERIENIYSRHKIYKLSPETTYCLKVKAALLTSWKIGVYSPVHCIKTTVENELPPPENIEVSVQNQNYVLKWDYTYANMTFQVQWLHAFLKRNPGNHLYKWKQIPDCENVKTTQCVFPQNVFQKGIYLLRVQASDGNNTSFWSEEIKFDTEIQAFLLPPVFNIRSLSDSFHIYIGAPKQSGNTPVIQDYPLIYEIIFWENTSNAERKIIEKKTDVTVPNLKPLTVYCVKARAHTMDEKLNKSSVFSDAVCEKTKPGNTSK

[2] = target: T1, human IFNAR-1 protein (form not stated); assay: affinity ranking of expressed humanized 8G11 IgGs (method not named)

- Kd [1]: 9.33 nM
- koff [1]: 0.00475 s⁻¹
- kon [1]: 509000 M⁻¹ s⁻¹
B1: 485G10 humanized VH0 + VL1 (antibody, V domains shown)
VH: QVQLVQSGAEVKKPGASVKVSCKASGFNIKDYYIHWVRQAPGQGLEWMGRIDPEDAETKYAPKFQGRVTMTRDTSISTAYMELSRLRSDDTVVYYCARYHGYWALDYWGQGTLVTVSS
VL: DIQMTQSPSSLSASVGDRVTITCKTSQNVGTNVAWFQQKPGKAPKSLIYSTSYRYSGVPSRFSGSGSGTDFTLTISSLQPEDFATYYCHQYFSYPYTFGPGTKVDIK
notes: Humanized IgG expressed in HEK293; also called VH0 + VL1 (485G10)

- Kd [1]: 19.1 nM
- koff [1]: 0.0185 s⁻¹
- kon [1]: 971000 M⁻¹ s⁻¹
B2: 485G10 humanized VH3 + VL1 (antibody, V domains shown)
VH: B1 VH with V20L, A24G, R38K, M48I, V68A, M70I, R72A, M81L, A97G
VL: B1 VL
notes: Humanized IgG expressed in HEK293; also called VH3 + VL1 (485G10)

- Kd [1]: 1.57 nM
- koff [1]: 0.000439 s⁻¹
- kon [1]: 279000 M⁻¹ s⁻¹
B3: 485G10 humanized VH0 + VL2 (antibody, V domains shown)
VH: B1 VH
VL: B1 VL with A13T, F36Y, S46P
notes: Humanized IgG expressed in HEK293; also called VH0 + VL2 (485G10)

- Kd [1]: 1.07 nM
- koff [1]: 0.000316 s⁻¹
- kon [1]: 294000 M⁻¹ s⁻¹
B4: 485G10 humanized VH0 + VL3 (antibody, V domains shown)
VH: B1 VH
VL: B1 VL with A13T, F36Y, S46P, L78V, V104L
notes: Humanized IgG expressed in HEK293; also called VH0 + VL3 (485G10)

- Kd [1]: 0.99 nM
- koff [1]: 0.0003 s⁻¹
- kon [1]: 303000 M⁻¹ s⁻¹
B5: 485G10 humanized VH2 + VL4 (antibody, V domains shown)
VH: B1 VH with V20L, R38K, M48I, R72A, A97G
VL: B1 VL with A13T, I21V, F36Y, S46P, L78V, V104L
notes: Humanized IgG expressed in HEK293; also called VH2 + VL4 (485G10)

- Kd [1]: 0.766 nM
- koff [1]: 0.000271 s⁻¹
- kon [1]: 354000 M⁻¹ s⁻¹
B6: 485G10 humanized VH3 + VL4 (antibody, V domains shown)
VH: B1 VH with V20L, A24G, R38K, M48I, V68A, M70I, R72A, M81L, A97G
VL: B1 VL with A13T, I21V, F36Y, S46P, L78V, V104L
notes: Humanized IgG expressed in HEK293; also called VH3 + VL4 (485G10)

- Kd [1]: 1.25 nM
- koff [1]: 0.000318 s⁻¹
- kon [1]: 255000 M⁻¹ s⁻¹
B7: 485G10 humanized VH0 + VL4 (antibody, V domains shown)
VH: B1 VH
VL: B1 VL with A13T, I21V, F36Y, S46P, L78V, V104L
notes: Humanized IgG expressed in HEK293; also called VH0 + VL4 (485G10)

- Kd [1]: 0.906 nM
- koff [1]: 0.000298 s⁻¹
- kon [1]: 329000 M⁻¹ s⁻¹
B8: 485G10 humanized VH2 + VL2 (antibody, V domains shown)
VH: B1 VH with V20L, R38K, M48I, R72A, A97G
VL: B1 VL with A13T, F36Y, S46P
notes: Humanized IgG expressed in HEK293; also called VH2 + VL2 (485G10)

- Kd [1]: 3.14 nM
- koff [1]: 0.00103 s⁻¹
- kon [1]: 328000 M⁻¹ s⁻¹
B9: 485G10 humanized VH1 + VL1 (antibody, V domains shown)
VH: B1 VH with R72A
VL: B1 VL
notes: Humanized IgG expressed in HEK293; also called VH1 + VL1 (485G10)

- Kd [1]: 0.864 nM
- koff [1]: 0.000264 s⁻¹
- kon [1]: 306000 M⁻¹ s⁻¹
B10: 485G10 humanized VH3 + VL2 (antibody, V domains shown)
VH: B1 VH with V20L, A24G, R38K, M48I, V68A, M70I, R72A, M81L, A97G
VL: B1 VL with A13T, F36Y, S46P
notes: Humanized IgG expressed in HEK293; also called VH3 + VL2 (485G10)

- Kd [1]: 0.841 nM
- koff [1]: 0.000279 s⁻¹
- kon [1]: 332000 M⁻¹ s⁻¹
B11: 485G10 humanized VH3 + VL3 (antibody, V domains shown)
VH: B1 VH with V20L, A24G, R38K, M48I, V68A, M70I, R72A, M81L, A97G
VL: B1 VL with A13T, F36Y, S46P, L78V, V104L
notes: Humanized IgG expressed in HEK293; also called VH3 + VL3 (485G10)

- Kd [1]: 20.5 nM
- koff [1]: 0.00663 s⁻¹
- kon [1]: 323000 M⁻¹ s⁻¹
B12: 485G10 humanized VH2 + VL1 (antibody, V domains shown)
VH: B1 VH with V20L, R38K, M48I, R72A, A97G
VL: B1 VL
notes: Humanized IgG expressed in HEK293; also called VH2 + VL1 (485G10)

- Kd [2]: 0.364 nM
- koff [2]: 0.00011 s⁻¹
- kon [2]: 301000 M⁻¹ s⁻¹
B13: 8G11 humanized VH3 + VL3 (antibody, V domains shown)
VH: QVQLVQSGAEVVKPGASVKVSCKGSGFNIKDYYMHWVKQAPGQGLEWIGRIDPEDAETKYAPKFQGRVTITADTSTSTVYLELSSLRSEDTAVYYCARGGNFYVMDYWGQGTLVTVSS
VL: DIQLTQSPSFLSTSVGDRVTITCKASQNVGTNVVWYQQKPGKSPKVLIYSASYRVSGVPSRFSGSGSGTEFTLIISSVQPEDFATYFCQQKNNYPYTFGQGTKLEIK
notes: Humanized IgG expressed in HEK293; also called VH3 + VL3 (8G11)

- Kd [2]: 0.765 nM
- koff [2]: 0.000127 s⁻¹
- kon [2]: 167000 M⁻¹ s⁻¹
B14: 8G11 humanized VH1 + VL2 (antibody, V domains shown)
VH: B13 VH with V12K, G24A, K38R, I48M, I70M, A72R, L81M
VL: B13 VL with V78L, F87Y
notes: Humanized IgG expressed in HEK293; also called VH1 + VL2 (8G11)
